Reference: patent US20230240988A1, “FLUID GEL COMPOSITIONS” (The University of Birmingham, priority 2020, published 2023)

How the values were obtained:
[1] = tested on: fibrin gel; test: Matrix breakdown assay; assay type: biochemical; settings: 60° C.; images at various timepoints
Protocol: • Add proteinase K (10 mg) to PBS to make a total volume of 1 ml. • Mix well on a vortex mixer until dissolved.
• Add 0.9 ml of 3% v/v PEG-DA fluid gel prepared according to Example 5.3 to an Eppendorf. • To each gel add 0.1 ml of active in PBS. • Mix well using a vortex mixer. • Refrigerate for 24 hours before testing.
0.5 ml of fibrin gel (8.5 mg/ml) was formed in the wells of a 24 well plate. • 0.5 ml of PBS was added to each well. • 0.1 ml of fluid gel containing active was added to a trans-well insert and placed above the fibrin gel. • Samples were incubated at 60° C. to activate the proteinase K. • Images were taken at various timepoints and compared to (a) the control wells containing only fibrin gel+PBS; and (b) wells containing fibrin gel+proteinase k (no fluid gel carrier).

[2] = Release assay of active agents from PEG-DA fluid gel (trans-well, UV/Vis); assay type: physicochemical; settings: 3% v/v PEG-DA fluid gel (500 rpm), PBS 37° C., 5 hrs
Protocol: • Active amounts: […] • Standard concentrations of active in PBS were prepared. • Standards were pipetted into a quartz cuvette (1 mm pathlength). • […] spectroscopy was used to measure absorbance between 200 and 700 nm wavelength. • Curves were plotted and used to determine standard curves which were used to determine concentrations. • 0.5 ml PBS was added to the well of a 24 well plate. • The PBS was incubated at 37° C. to equilibrate. 0.1 ml of the fluid gel containing active was placed in a trans-well insert. • The trans-well insert was placed into a well containing PBS. • After a given time period the trans-well insert was removed and placed in a fresh well of PBS. • The release media was then removed and analysed using […] spectroscopy. Concentrations were derived from the standard curves and cumulative release plotted as a function of time.

B1: Proteinase K: extracellular matrix remodelling agent, proteinase (protein, UniProt P06873 106-384, looked up)
Proteinase K: AAQTNAPWGLARISSTSPGTSTYYYDESAGQGSCVYVIDTGIEASHPEFEGRAQMVKTYYYSSRDGNGHGTHCAGTVGSRTYGVAKKTQLFGVKVLDDNGSGQYSTIIAGMDFVASDKNNRNCPKGVVASLSLGGGYSSSVNSAAARLQSSGVMVAVAAGNNNADARNYSPASEPSVCTVGASDRYDRRSSFSNYGSVLDIFGPGTSILSTWIGGSTRSISGTSMATPHVAGLAAYLMTLGKTTAASACRYIADTANKGDLSNIPFGTVNLLAYNNYQA
- fibrin gel break down [1]: faster
- release of active agent from fluid gel [2]: able to release
